# Literature values in PMC8712716.
# Experiments:
# FGF-2 (Homo sapiens) = FGF-2 (Homo sapiens) (UniProt P09038)
# TGF-beta1 (Homo sapiens) = TGF-beta1 (Homo sapiens) (UniProt P01137)
# TGF-beta2 (Homo sapiens) = TGF-beta2 (Homo sapiens) (UniProt P61812)
# NGF-beta (Homo sapiens) = NGF-beta (Homo sapiens) (UniProt P01138)
# TNF-alpha (Homo sapiens) = TNF-alpha (Homo sapiens) (UniProt P01375)
# GRP78 (Homo sapiens) = GRP78 (Homo sapiens) (UniProt P11021)
# Chain of GRP78 (Homo sapiens) (P11021 19-654): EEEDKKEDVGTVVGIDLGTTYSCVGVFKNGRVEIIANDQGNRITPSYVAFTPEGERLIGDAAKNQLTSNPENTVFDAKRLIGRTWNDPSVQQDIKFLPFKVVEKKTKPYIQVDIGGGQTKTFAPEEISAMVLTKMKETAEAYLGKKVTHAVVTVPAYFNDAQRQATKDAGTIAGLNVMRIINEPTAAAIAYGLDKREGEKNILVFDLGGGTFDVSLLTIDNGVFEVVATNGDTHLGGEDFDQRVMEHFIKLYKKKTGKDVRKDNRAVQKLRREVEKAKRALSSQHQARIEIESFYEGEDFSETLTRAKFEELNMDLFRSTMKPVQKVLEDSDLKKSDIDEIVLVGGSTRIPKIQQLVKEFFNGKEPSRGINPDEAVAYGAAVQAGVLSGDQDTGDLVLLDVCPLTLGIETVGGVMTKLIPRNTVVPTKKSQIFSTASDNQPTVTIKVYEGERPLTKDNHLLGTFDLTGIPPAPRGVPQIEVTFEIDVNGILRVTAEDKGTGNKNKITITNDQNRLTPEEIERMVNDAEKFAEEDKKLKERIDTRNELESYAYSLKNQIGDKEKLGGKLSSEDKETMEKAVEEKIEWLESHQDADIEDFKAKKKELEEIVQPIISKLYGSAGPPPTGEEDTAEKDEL
# Chain of alpha-2-macroglobulin (P01023 24-1474): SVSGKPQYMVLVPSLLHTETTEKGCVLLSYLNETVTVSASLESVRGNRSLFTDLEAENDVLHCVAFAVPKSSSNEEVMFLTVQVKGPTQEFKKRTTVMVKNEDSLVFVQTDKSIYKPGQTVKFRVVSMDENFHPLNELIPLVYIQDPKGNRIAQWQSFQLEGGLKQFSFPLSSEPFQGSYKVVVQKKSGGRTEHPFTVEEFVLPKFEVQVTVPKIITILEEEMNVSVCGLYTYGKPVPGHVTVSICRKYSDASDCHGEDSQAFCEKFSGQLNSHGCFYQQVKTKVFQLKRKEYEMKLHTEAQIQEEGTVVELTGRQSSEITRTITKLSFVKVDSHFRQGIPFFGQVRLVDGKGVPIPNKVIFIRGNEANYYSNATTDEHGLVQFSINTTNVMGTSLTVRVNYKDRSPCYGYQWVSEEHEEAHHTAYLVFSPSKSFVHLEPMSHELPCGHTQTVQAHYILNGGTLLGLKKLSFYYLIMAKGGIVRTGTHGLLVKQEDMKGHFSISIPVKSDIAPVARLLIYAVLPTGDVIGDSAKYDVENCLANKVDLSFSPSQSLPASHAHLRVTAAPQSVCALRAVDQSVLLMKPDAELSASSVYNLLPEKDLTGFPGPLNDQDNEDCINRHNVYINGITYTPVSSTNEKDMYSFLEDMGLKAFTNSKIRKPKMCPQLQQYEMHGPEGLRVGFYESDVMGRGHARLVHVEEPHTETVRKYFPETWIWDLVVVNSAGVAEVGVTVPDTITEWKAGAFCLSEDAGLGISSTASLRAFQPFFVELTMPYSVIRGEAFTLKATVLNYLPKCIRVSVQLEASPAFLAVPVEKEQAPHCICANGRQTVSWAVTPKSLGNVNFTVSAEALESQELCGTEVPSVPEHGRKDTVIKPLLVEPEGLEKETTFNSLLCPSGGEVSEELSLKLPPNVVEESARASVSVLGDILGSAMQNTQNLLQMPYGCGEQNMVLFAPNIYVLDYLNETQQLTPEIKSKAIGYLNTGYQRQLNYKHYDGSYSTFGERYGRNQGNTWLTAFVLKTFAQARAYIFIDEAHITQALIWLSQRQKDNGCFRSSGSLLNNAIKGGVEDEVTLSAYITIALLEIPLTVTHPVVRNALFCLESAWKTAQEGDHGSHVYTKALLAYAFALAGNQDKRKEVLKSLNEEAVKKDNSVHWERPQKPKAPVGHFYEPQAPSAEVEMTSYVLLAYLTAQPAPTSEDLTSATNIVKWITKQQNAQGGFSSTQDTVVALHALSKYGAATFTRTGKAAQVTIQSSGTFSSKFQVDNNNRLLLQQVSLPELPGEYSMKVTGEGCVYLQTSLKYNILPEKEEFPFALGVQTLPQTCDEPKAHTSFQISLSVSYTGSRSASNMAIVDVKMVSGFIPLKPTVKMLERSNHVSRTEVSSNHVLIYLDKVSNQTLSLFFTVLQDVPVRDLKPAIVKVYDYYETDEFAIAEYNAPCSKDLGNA
# Chain of TGF-beta1 (Homo sapiens) (P01137 279-390): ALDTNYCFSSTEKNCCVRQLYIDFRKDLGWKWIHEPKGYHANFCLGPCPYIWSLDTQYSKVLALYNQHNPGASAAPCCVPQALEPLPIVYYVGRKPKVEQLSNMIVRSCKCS
# Chain of FGF-2 (Homo sapiens) (P09038 143-288): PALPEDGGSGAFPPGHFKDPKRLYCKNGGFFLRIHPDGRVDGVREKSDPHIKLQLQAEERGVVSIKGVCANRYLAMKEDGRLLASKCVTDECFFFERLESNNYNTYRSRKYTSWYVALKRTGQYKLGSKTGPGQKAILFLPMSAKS
# Chain of TNF-alpha (Homo sapiens) (P01375 77-233): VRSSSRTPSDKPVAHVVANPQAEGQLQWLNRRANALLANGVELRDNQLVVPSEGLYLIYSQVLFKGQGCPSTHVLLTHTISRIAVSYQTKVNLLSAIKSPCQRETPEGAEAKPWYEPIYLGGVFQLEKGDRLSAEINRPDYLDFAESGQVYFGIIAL
# Chain of TGF-beta2 (Homo sapiens) (P61812 303-414): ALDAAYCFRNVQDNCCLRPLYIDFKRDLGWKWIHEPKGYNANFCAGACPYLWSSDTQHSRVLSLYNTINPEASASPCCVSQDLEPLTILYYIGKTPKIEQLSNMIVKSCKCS
# Chain of NGF-beta (Homo sapiens) (P01138 122-241): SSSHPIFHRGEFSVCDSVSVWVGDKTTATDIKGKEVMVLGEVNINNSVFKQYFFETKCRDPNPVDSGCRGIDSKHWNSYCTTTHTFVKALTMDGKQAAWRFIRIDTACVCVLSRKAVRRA
substance,measurement,setting,value
alpha-2-macroglobulin (from UniProt P01023),Kd,FGF-2 (Homo sapiens),590 nM
same,Kd,TGF-beta1 (Homo sapiens),80 nM
same,Kd,TGF-beta2 (Homo sapiens),12 nM
same,Kd,NGF-beta (Homo sapiens),110 nM
same,Kd,TNF-alpha (Homo sapiens),> 750 nM
same,Kd,GRP78 (Homo sapiens),0.15 nM
